Reference: IntAct's records for PubMed 35512704

B1: Mothers against decapentaplegic homolog 4 (Homo sapiens), Q13485 (parent)
chain: MDNMSITNTPTSNDACLSIVHSLMCHRQGGESETFAKRAIESLVKKLKEKKDELDSLITAITTNGAHPSKCVTIQRTLDGRLQVAGRKGFPHVIYARLWRWPDLHKNELKHVKYCQYAFDLKCDSVCVNPYHYERVVSPGIDLSGLTLQSNAPSSMMVKDEYVHDFEGQPSLSTEGHSIQTIQHPPSNRASTETYSTPALLAPSESNATSTANFPNIPVASTSQPASILGGSHSEGLLQIASGPQPGQQQNGFTGQPATYHHNSTTTWTGSRTAPYTPNLPHHQNGHLQHHPPMPPHPGHYWPVHNELAFQPPISNHPAPEYWCSIAYFEMDVQVGETFKVPSSCPIVTVDGYVDPSGGDRFCLGQLSNVHRTEAIERARLHIGKGVQLECKGEGDVWVRCLSDHAVFVQSYYLDREAGRAPGDAVHKIYPSAYIKVFDLRQCHRQMQQQAATAQAAAAAQAAAVAGNIPGPGSVGGIAPAISLSAAAGIGVDDLRRLCILRMSFVKGWGPDYPRQSIKETPCWIEIHLHRALQLLDEVLHTMPIADPQPLD
partner: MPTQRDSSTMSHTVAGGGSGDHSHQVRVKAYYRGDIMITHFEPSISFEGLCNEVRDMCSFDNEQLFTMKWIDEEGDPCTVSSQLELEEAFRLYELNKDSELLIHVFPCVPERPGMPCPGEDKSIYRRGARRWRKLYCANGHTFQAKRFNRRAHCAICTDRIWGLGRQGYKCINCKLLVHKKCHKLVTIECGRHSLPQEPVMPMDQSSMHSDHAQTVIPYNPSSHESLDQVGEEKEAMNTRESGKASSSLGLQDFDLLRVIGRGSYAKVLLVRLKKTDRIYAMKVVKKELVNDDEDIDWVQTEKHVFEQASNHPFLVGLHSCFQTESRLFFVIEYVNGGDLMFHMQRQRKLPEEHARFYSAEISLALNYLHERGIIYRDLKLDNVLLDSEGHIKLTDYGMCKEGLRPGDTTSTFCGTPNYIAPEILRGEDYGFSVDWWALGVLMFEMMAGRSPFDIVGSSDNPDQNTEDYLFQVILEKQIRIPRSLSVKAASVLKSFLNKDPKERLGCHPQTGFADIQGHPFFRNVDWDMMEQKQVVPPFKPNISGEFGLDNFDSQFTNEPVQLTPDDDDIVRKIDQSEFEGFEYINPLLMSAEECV
B2: Mothers against decapentaplegic homolog 4 (Homo sapiens), Q13485 (parent)
chain: B1 chain
partner: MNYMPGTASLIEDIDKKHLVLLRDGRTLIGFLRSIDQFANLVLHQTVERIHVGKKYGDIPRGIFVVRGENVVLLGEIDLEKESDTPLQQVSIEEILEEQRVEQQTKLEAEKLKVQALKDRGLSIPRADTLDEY
B3: Mothers against decapentaplegic homolog 4 (Homo sapiens), Q13485 (parent)
chain: B1 chain
partner: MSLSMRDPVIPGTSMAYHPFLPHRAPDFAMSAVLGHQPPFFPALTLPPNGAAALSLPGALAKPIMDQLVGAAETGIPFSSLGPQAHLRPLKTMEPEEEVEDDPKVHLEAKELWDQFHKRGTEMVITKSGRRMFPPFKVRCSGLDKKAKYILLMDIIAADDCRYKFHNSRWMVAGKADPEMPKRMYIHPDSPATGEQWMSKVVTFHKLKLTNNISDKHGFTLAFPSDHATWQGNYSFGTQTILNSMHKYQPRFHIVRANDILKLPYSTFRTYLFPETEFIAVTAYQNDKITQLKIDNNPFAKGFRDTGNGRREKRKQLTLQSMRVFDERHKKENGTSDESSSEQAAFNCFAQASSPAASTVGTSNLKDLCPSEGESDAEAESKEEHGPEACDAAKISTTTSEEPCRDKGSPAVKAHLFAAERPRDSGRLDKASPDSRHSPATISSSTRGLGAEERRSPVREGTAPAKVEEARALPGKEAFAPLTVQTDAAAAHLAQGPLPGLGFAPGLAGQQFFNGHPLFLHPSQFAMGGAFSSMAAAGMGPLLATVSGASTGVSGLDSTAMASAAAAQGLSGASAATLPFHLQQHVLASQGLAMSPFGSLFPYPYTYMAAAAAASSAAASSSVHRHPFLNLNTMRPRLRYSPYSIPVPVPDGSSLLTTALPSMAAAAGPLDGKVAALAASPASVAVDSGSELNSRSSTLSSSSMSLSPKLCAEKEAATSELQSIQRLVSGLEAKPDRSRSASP
B4: Mothers against decapentaplegic homolog 4 (Homo sapiens), Q13485 (parent)
chain: B1 chain
partner: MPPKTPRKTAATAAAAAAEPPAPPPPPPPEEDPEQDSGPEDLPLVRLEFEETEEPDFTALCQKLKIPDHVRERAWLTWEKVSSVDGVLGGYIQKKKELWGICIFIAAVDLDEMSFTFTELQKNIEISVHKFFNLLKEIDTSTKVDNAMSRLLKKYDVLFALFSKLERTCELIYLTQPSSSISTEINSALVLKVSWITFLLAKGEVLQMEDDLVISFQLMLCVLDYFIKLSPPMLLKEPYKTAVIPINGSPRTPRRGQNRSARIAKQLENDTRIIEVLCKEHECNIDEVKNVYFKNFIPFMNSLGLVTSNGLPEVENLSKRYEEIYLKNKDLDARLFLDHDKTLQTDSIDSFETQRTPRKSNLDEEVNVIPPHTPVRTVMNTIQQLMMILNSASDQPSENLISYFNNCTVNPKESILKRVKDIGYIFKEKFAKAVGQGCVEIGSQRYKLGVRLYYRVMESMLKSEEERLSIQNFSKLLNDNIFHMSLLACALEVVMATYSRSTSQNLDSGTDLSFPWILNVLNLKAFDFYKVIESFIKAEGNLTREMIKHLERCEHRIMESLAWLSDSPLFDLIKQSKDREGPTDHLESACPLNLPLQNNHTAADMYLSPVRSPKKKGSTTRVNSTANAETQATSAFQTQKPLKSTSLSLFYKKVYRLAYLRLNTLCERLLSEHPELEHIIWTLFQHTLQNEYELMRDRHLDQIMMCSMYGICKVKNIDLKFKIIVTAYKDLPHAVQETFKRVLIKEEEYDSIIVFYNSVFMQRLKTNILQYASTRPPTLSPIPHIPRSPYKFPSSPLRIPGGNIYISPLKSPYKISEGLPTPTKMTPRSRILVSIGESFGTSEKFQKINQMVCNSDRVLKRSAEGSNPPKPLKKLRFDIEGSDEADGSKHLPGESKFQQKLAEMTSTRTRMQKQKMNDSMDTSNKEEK
B5: Mothers against decapentaplegic homolog 4 (Homo sapiens), Q13485 (parent)
chain: B1 chain
partner: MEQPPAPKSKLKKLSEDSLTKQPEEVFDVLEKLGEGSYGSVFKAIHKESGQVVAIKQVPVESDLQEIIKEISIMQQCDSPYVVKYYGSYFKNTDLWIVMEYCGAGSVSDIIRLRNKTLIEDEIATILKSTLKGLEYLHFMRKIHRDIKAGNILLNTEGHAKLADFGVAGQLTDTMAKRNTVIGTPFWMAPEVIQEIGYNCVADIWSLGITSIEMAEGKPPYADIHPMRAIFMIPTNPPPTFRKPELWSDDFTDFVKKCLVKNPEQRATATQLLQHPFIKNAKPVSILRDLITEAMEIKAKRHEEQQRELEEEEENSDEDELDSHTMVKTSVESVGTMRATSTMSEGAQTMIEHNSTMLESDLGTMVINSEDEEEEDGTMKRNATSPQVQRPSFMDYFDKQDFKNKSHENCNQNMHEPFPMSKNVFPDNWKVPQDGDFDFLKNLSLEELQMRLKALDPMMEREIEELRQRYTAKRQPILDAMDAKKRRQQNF

Variants of: B1
Details: with kpci_human PRKCI

effect of a mutation on the interaction | Variant
with no effect | R361H

Variants of: B2
Details: with lsm1_human LSM1, O15116

effect of a mutation on the interaction | Variant
with no effect | G386D

Variants of: B2
Details: with lsm1_human LSM1, O15116
Remark: another data set of the same source

effect of a mutation on the interaction | Variant
with no effect | R361C

Variants of: B2
Details: with lsm1_human LSM1, O15116
Remark: another data set of the same source

effect of a mutation on the interaction | Variant
with no effect | R361H

Variants of: B2
Details: with lsm1_human LSM1, O15116
Remark: another data set of the same source

effect of a mutation on the interaction | Variant
with no effect | D351H

Variants of: B3
Details: with tbx3_human TBX3, O15119

effect of a mutation on the interaction | Variant
with no effect | G386D

Variants of: B3
Details: with tbx3_human TBX3, O15119
Remark: another data set of the same source

effect of a mutation on the interaction | Variant
with no effect | D351H

Variants of: B4
Details: with rb_human RB1, P06400

effect of a mutation on the interaction | Variant
with no effect | D351H

Variants of: B5
Details: with stk3_human STK3, Q13188

effect of a mutation on the interaction | Variant
with no effect | G386D

Variants of: B5
Details: with stk3_human STK3, Q13188
Remark: another data set of the same source

effect of a mutation on the interaction | Variant
with no effect | D351H

Variants of: B5
Details: with stk3_human STK3, Q13188
Remark: another data set of the same source

effect of a mutation on the interaction | Variant
with no effect | R361C
